Results on 13 molecules are retold here after article PMC4283134, “Nup98 FG domains from diverse species spontaneously phase-separate into particles with nuclear pore-like permselectivity” (eLife, 2015).

The target in series [1] is Dictyostelium discoideum Nup220 FG domain (Dictyostelium discoideum). Put plainly: dynamic light scattering; FG domain diluted from stocks in 2 M GuHCl into TBS (50 mM Tris/HCl pH 7.5, 150 mM NaCl) to 10-0.06 µM; critical concentration of phase separation from the lowest concentration with particles, refined by the monomers that co-exist with particles.
Series [2] addresses Trypanosoma brucei Nup158 FG domain (Trypanosoma brucei). The series is described as above.
The target in series [3] is Branchiostoma floridae Nup98 FG domain, O-GlcNAc modified (Branchiostoma floridae). The series is described as above.
The target in series [4] is Branchiostoma floridae Nup98 FG domain (Branchiostoma floridae). The description is as above.
The target in series [5] is Saccharomyces cerevisiae Nup100 FG domain (residues 2-580, purified) (S. cerevisiae) (UniProt Q02629). Put plainly: partitioning into FG particles (confocal laser-scanning microscopy); FG particles formed from 5 or 10 µM purified FG domain (with labelled tracer) by dilution from GuHCl into TBS; 1 µM fluorescent NTR or NTR⋅cargo complex or 3 µM passive probe added; images about 2-3 min later.

The target in series [6] is Saccharomyces cerevisiae Nup100 FG domain (residues 1-580, FG bodies formed in E. coli) (S. cerevisiae) (UniProt Q02629). Put plainly: partitioning into FG bodies or inclusion bodies (confocal laser-scanning microscopy); crude FG bodies or actin inclusion bodies from E. coli, washed twice in TBS; 1 µM Impβ•IBB-GFP and MBP-mCherry added.
Series [7] has as its target Saccharomyces cerevisiae Nup116 FG domain (residues 1-736, FG bodies formed in E. coli) (S. cerevisiae) (UniProt Q02630). The description is as above.
Series [8] has as its target Tetrahymena thermophila macronuclear MacNup98A FG domain (Tetrahymena thermophila). Put plainly: dynamic light scattering; FG domain diluted from stocks in 2 M GuHCl into TBS (50 mM Tris/HCl pH 7.5, 150 mM NaCl) to 10-0.06 µM; critical concentration of phase separation from the lowest concentration with particles, refined by the monomers that co-exist with particles.
A further series addresses T1, human Importin β (human, UniProt Q14974 1-876).
T1 construct: Importin β, human; also called HsImpβ; pICH005; source: E. coli (BLR or NEB Express), purified (native Ni(II) chelate chromatography, tag removed); not shown: His14, N-terminal, cleaved; scSUMO, N-terminal, cleaved
The series can be described thus: pull-down; His-tagged FG domains (30 µg each) immobilised on 30 µl PEG-passivated Ni(II) chelate beads; 1 µM untagged human Importin β (400 µl), 2 hr at 4°C; 25 mM Tris/HCl pH 7.5, 100 mM NaCl, 1 mM MgCl2, 0.5% PEG4000, 5 mM DTT; SDS-PAGE/Coomassie. Particulars: both partners purified.

Series [9] concerns the molecule itself. The series can be described thus: dynamic light scattering; FG domain diluted from stocks in 2 M GuHCl into TBS (50 mM Tris/HCl pH 7.5, 150 mM NaCl) to 10-0.06 µM; critical concentration of phase separation from the lowest concentration with particles, refined by the monomers that co-exist with particles.

T1 sequence (Q14974 whole entry): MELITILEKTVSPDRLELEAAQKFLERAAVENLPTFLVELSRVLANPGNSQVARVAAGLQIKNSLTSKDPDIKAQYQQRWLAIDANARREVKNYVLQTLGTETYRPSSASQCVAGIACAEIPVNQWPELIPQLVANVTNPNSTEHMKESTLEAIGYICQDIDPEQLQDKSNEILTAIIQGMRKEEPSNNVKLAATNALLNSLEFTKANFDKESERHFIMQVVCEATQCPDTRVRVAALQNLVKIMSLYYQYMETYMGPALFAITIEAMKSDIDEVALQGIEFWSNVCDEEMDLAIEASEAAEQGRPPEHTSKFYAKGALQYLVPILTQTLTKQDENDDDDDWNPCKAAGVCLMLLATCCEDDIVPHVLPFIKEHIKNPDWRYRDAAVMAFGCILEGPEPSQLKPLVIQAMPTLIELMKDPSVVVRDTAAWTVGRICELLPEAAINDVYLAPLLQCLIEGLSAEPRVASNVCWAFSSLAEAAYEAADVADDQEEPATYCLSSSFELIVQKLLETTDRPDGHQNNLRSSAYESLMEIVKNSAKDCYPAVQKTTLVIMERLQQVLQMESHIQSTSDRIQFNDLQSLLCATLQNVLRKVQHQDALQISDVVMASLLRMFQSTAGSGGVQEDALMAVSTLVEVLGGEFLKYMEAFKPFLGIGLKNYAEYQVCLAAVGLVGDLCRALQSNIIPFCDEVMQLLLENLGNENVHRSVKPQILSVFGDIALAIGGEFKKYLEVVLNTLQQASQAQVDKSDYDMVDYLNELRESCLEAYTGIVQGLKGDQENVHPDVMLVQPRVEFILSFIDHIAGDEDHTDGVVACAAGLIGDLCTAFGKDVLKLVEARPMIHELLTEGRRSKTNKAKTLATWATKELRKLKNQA

Turning to “Dictyostelium discoideum Nup220 FG domain (domain or fragment)”, in series [1], the estimated critical concentration for phase separation (FG domain) is 125 nM.

Turning to “Trypanosoma brucei Nup158 FG domain (domain or fragment)”, in [2], the estimated critical concentration for phase separation (FG domain) is 300 nM.

On to “Branchiostoma floridae Nup98 FG domain, O-GlcNAc modified (domain or fragment)”, for which the estimated critical concentration for phase separation (FG domain) in [3] was 150 nM.

As for “Branchiostoma floridae Nup98 FG domain (domain or fragment)”, in [4], the estimated critical concentration for phase separation (FG domain) is 20 nM.

Regarding MBP-mCherry fusion, the particle:buffer partition coefficient in series [5] was < 0.1.

For the molecule “Importin β⋅IBB-GFP complex (from UniProt Q06142 1-861; Q02821 2-63)”, the particle:buffer partition coefficient in series [6] amounted to 200; in [7], 200; in [5], 220.

For the molecule “Tetrahymena thermophila macronuclear MacNup98A FG domain (domain or fragment)”, in series [8], the estimated critical concentration for phase separation (FG domain) was 25 nM.

B1: Caenorhabditis elegans NPP-10/Nup98 FG domain (domain or fragment)
chain: MFGQNKSFGSSSFGGGSSGSGLFGQNNQNNQNKGLFGQPANNSGTTGLFGAAQNKPAGSIFGAASNTSSIFGSPQQPQNNQSSLFGGGQNNANRSIFGSTSSAAPASSSLFGNNANNTGTSSIFGSNNNAPSGGGLFGASTVSGTTVKFEPPISSDTMMRNGTTQTISTKHMCISAMSKYDGKSIEELRVEDYIANRKAPGTGTTSTGGGLFGASNTTNQAGSSGLFGSSNAQQKTSLFGGASTSSPFGGNTSTANTGSSLFGNNNANTSAASGSLFGAKPAGSSLFGSTATTGASTFGQTTGSSLFGNQQPQTNTGGSLFGNTQNQNQSGSLFGNTGTTGTGLFGQAQQQPQQQSSGFSFGGAPAATNAFGQPAAANTGGSLFGNTSTANTGSSLFGAKPATSTGFTFGATQPTTTNAFGSTNTGGGLFGNNAAKPGGLFGNTTNTGTGGGLFGSQPQASSGGLFGSNTQATQPLNTGFGNLAQPQIVMQQQC
notes: NPP-10/Nup98 FG domain, Caenorhabditis elegans, residues 1-493; engineered C-terminal cysteine; In particle assays a few percent of the molecules carried a fluorescent tracer label; also called CeNup98 FG; CeNup98; source: E. coli (BLR or NEB Express), purified (Ni(II) chelate, denaturing conditions); not shown: His18, N-terminal, kept
In the case of B1, in the series with human Importin β, the binding result was “binds”. For the same molecule, in [9], the “estimated critical concentration for phase separation (FG domain)” value (“estimated critical concentration” below) was ~700 nM.

B2: Arabidopsis thaliana Nup98B FG domain (domain or fragment)
chain: MFGSSNNNPFGQSSISSPFGTQTHSLFGQTNNNASNNPFATKPFGTSTPFGAQTGSSMFGGTSTGVFGAPQTSSPFGASPQAFGSSTQAFGASSTPSFGSSNSPFGGTSTFGQKSFGLSTPQSSPFGSTTQQSQPAFGNSTFGSSTPFGASTTPAFGASSTPAFGVSNTSGFGATNTPGFGATNTTGFGGSSTPGFGASSTPAFGSTNTPAFGASSTPLFGSSSSPAFGASPAPAFGSSGNAFGNNTFSSGGAFGSSSTPTFGASNTSAFGASSSPSFNFGSSPAFGQSTSAFGSSSFGSTQSSLGSTPSPFGAQGAQASTSTFGGQSTIGGQQGGSRVIPYAPTTDTASGTESKSERLQSISAMPAHKGKNMEELRWEDYQRGDKGGQRSTGQSPEGAGFGVTNSQPSIFSTSPAFSQTPVNPTNPFSQTTPTSNTNFSPSFSQPTTPSFGQPTTPSFRSTVSNTTSVFGSSSSLTTNTSQPLGSSIFGSTPAHGSTPGFSIGGFNNSQSSPLFGSNPSFAQNTTPAFSQTSPLFGQNTTPALGQSSSVFGQNTNPALVQSNTFSTPSTGFGNTFSSSSSLTTSISPFGQITPAVTPFQSAQPTQPLGAFGFNNFGQTQIANTTDIAGAMGTFSQGNFKQQPALGNSAVMQPTPVTNPFGTLPALPQC
notes: Nup98B FG domain, Arabidopsis thaliana, residues 1-668; engineered C-terminal cysteine; In particle assays a few percent of the molecules carried a fluorescent tracer label; also called AtNup98B FG; AtNup98B; source: E. coli (BLR or NEB Express), purified (Ni(II) chelate, denaturing conditions); not shown: His14 (with TEV site), N-terminal, kept
As to B2, in the series with human Importin β, the binding result is on record as “binds”. Moreover, the “estimated critical concentration” value in series [9] is ~25 nM.

B3: Drosophila melanogaster Nup98 FG domain (domain or fragment)
chain: MFGGAKPSFGATPAATSFGGFSGTTTTTPFGQSAFGKPAAPAFGNTSTFAAQPAQQSLFGAAATPAQPAGGLFGANTSTGFGSTATAQPTAFGAFSQPQQTSNIFGSTQTAASTSLFGQSTLPAFGAAKPTMTAFGQTAAAQPTGSLFGQPAAATSTTGFGGFGTSAPTTTNVFGSGTASAFAQPQATAVGASGVNTGTAVAKYQPTIGTDTLMKSGQANSVNTKQHCITAMKEFEGKSLEELRLEDYMCGRKGPQAGNAPGAFGFGAQVTQPAQPASGGLFGSTAQPSTGLFGQTVTENKSMFGTTAFGQQPATNNAFGAATQQNNFLQKPFGATTTTPFAAPAADASNPFGAKPAFGQGGSLFGQAPATSAAPAFGQTNTGFGGFGTTAGATQQSTLFGATPAADPNKSAFGLGTAASAATTGFGFGAPATSTAGGGLFGNKPATSFAAPTFGATSTASTPFSNFGLNTSTAATGGGLFNSGLNKPATSGFGGFGATSAAPLNFNAGNTGGSLFGNTAKPGGGLFGGGTTTLGGTGAAPTGGLFGGGTTSFGGVGGSLGGGGFGMGTNNSLTGGIMGAC
notes: Nup98 FG domain, Drosophila melanogaster, residues 1-580; engineered C-terminal cysteine; In particle assays a few percent of the molecules carried a fluorescent tracer label; also called DmNup98 FG; DmNup98; source: E. coli (BLR or NEB Express), purified (Ni(II) chelate, denaturing conditions); not shown: His18, N-terminal, kept
Regarding B3, the binding result with human Importin β is listed as “binds”. Further, the “estimated critical concentration” value in series [9] was ~200 nM.

B4: Saccharomyces cerevisiae Nup100 FG domain (residues 2-580, purified) (domain or fragment, S. cerevisiae)
chain: FGNNRPMFGGSNLSFGSNTSSFGGQQSQQPNSLFGNSNNNNNSTSNNAQSGFGGFTSAAGSNSNSLFGNNNTQNNGAFGQSMGATQNSPFGSLNSSNASNGNTFGGSSSMGSFGGNTNNAFNNNSNSTNSPFGFNKPNTGGTLFGSQNNNSAGTSSLFGGQSTSTTGTFGNTGSSFGTGLNGNGSNIFGAGNNSQSNTTGSLFGNQQSSAFGTNNQQGSLFGQQSQNTNNAFGNQNQLGGSSFGSKPVGSGSLFGQSNNTLGNTTNNRNGLFGQMNSSNQGSSNSGLFGQNSMNSSTQGVFGQNNNQMQINGNNNNSLFGKANTFSNSASGGLFGQNNQQQGSGLFGQNSQTSGSSGLFGQNNQKQPNTFTQSNTGIGLFGQNNNQQQQSTGLFGAKPAGTTGSLFGGNSSTQPNSLFGTTNVPTSNTQSQQGNSLFGATKLTNMPFGGNPTANQSGSGNSLFGTKPASTTGSLFGNNTASTTVPSTNGLFGNNANNSTSTTNTGLFGAKPDSQSKPALGGGLFGNSNSNSSTIGQNKPVFGGTTQNTGLFGATGTNSSAVGSTGKLFGQNNNTLNVGTC
notes: Nup100 FG domain, S. cerevisiae, residues 2-580; engineered C-terminal cysteine; In particle assays a few percent of the molecules carried a label (Atto390, Atto488 or Alexa488); also called ScNup100 FG; ScNup100; source: E. coli (BLR or NEB Express), purified (Ni(II) chelate, denaturing conditions); not shown: His18, N-terminal, kept
B4: the binding result with human Importin β is “binds”. Further, the “estimated critical concentration” value in series [9] is ~175 nM.

B5: Homo sapiens Nup98 FG domain (domain or fragment, human)
chain: MFNKSFGTPFGGGTGGFGTTSTFGQNTGFGTTSGGAFGTSAFGSSNNTGGLFGNSQTKPGGLFGTSSFSQPATSTSTGFGFGTSTGTANTLFGTASTGTSLFSSQNNAFAQNKPTGFGNFGTSTSSGGLFGTTNTTSNPFGSTSGSLFGPSSFTAAPTGTTIKFNPPTGTDTMVKAGVSTNISTKHQCITAMKEYESKSLEELRLEDYQANRKGPQNQVGAGTTTGLFGSSPATSSATGLFSSSTTNSGFAYGQNKTAFGTSTTGFGTNPGGLFGQQNQQTTSLFSKPFGQATTTQNTGFSFGNTSTIGQPSTNTMGLFGVTQASQPGGLFGTATNTSTGTAFGTGTGLFGQTNTGFGAVGSTLFGNNKLTTFGSSTTSAPSFGTTSGGLFGNKPTLTLGTNTNTSNFGFGTNTSGNSIFGSKPAPGTLGTGLGAGFGTALGAGQASLFGNNQPKIGGPLGTGAFGAPGFNTTTATLGFGAPQAPVALTDPNASAAQQAC
notes: Nup98 FG domain, human, residues 1-499; engineered C-terminal cysteine; In particle assays a few percent of the molecules carried a fluorescent tracer label; also called HsNup98 FG; HsNup98; source: E. coli (BLR or NEB Express), purified (Ni(II) chelate, denaturing conditions); not shown: His18, N-terminal, kept
As to B5, the binding result with human Importin β is recorded as “binds”. The “estimated critical concentration” value in series [9] was ~25 nM.

B6: Saccharomyces cerevisiae Nup116 FG domain without the GLEBS domain (domain or fragment, S. cerevisiae)
chain: FGVSRGAFPSATTQPFGSTGSTFGGQQQQQQPVANTSAFGLSQQTNTTQAPAFGNFGNQTSNSPFGMSGSTTANGTPFGQSQLTNNNASGSIFGGMGNNTALSAGSASFGTSQNGTGTTFNNPQGTTNTGFGIMGNNNSTTSATTGGLFGQKPATGMFGTGTGSGGGFGSGATNSTGLFGSSTNLSGNSAFGANKPATSGGLFGNTTNNPTNGTNNTGLFGQQNSNTNGGLFGQQQNSFGANNVSNGGAFGQVNRGAFPQQQTQQGSGGIFGQSNANANGGAFGQQQGTGALFGAKPASGGLFGQSAGSKAFGMNTNPTGTTGGLFGQTNQQQSGGGLFGQQQNSNAGGLFGQNNQSQNQSGLFGQQNSSNAFGQPQQQGGLFGSKPAGGLFGQQQGASTFASGNAQNNSIFGQNNQQQQSTGGLFGQQNNQSQSQPGGLFGQTNQNNNQPFGQNGLQQPQQNNSLFGAKPTGFGNTSLFSNSTTNQSNGISGNNLQQQSGGLFQNKQQPASGGLFGSKPSNTVGGGLFGNNQVANQNNPASTSGGLFGSKPATGSLFGGTNSTAPNASSGGIFGSNNASNTAATTNSTGLFGNKPVGAGASTSAGGLFGNNNNSSLNNSNGSTGLFGSNNTSQSTNAGGLFQNNTSTNTSGGGLFSC
notes: Nup116 FG domain, S. cerevisiae, residues 2-109 joined to 167-715 (GLEBS domain deleted); engineered C-terminal cysteine; In particle assays a few percent of the molecules carried a fluorescent tracer label; also called ScNup116_(ΔGLEBS) FG; ScNup116; source: E. coli (BLR or NEB Express), purified (Ni(II) chelate, denaturing conditions); not shown: His18, N-terminal, kept
On to B6, for which the “estimated critical concentration” value in series [9] was ~700 nM.
